Data taken from paper PMC7017188.

Target: His-tagged eukaryotic initiation factor 6 (eIF6), full length recombinant (UniProt P56537)
Experiment: AlphaScreen or HTRF; competition: serial dilution of non-biotinylated 60S against the optimised assay (eIF6 75 nM, 60S-Bio 0.5 nM); PBS pH 7.4, 5 mM MgCl2, 0.2% BSA, 0.02% Tween-20; room temperature; normalised between 100% displacement (no eIF6) and 0% displacement

Work on “non-biotinylated 60S ribosomal subunit (complex)” yielded an IC50 of 0.28 nM.
